Experiment [1] deals with T1, human GLP-1 receptor (human, UniProt P43220 24-463).
T1 construct: whole, on cells; Used as purified membranes of the transfected hamster cells, not whole cells; also called hGLP-1
The experiment in a line: SPA, 2.0% vs 0.005% HSA. Here is the method:
(§1) A shift in the binding affinity, $IC50$, is an indication that the derivative in question binds to albumin, and thereby a prediction of a potential protracted pharmacokinetic profile of the derivative in question in animal models.
(§2) 25 ul (microliter) of test compounds are added to Optiplate. HSA ("high albumin" experiment containing 2% HSA), or buffer ("low albumin" experiment containing 0.005% HSA), was added (50 ul). 5-10 µg protein/sample was added (50 ul) corresponding to 0.1-0.2 mg protein/ml (to be preferably optimised for each membrane preparation). SPA-particles (Wheatgerm agglutinin SPA beads, Perkin Elmer, #RPNQ0001) were added in an amount of 0.5 mg/well (50 ul). […] The plates were sealed with PlateSealer and incubated for 120 minutes at 30° C. while shaking. The plates were centrifuged (1500 rpm, 10 min) and counted in Topcounter.

The target in experiment [2] is T1, human GLP-1 receptor. Nature of the experiment: SPA, displacement of 125I-GLP-1(7-36)NH2, 0.005% HSA. The procedure: as §1, §2

*1 amine or outer side, *2 acyl side, *3 side chain or, on linkers, in order; H or OH if unused. Where no end group is shown, it is not given here. Side-chain parts run from the residue outwards. The star is where a group is joined. Decanoyl(10-(4-HOOC-PhO)) = O=C(O)c1ccc(OCCCCCCCCCC(=O)*)cc1; γGlu = O=C(O)[C@H](CCC(=O)[*:2])N[*:1]; 13‑carboxytridecanoyl = C14 diacid; Butanoyl(4-Ph) = O=C(CCCc1ccccc1)*; AEEA = NCCOCCOCC(=O)O; Ahx = NCCCCCC(=O)O

The IC50 is the concentration at which inhibition is half-maximal. Higher therefore signals a need for much substance. On to HAEGTFTSDVSK([AEEA-AEEA-γGlu-Decanoyl(10-(4-HOOC-PhO))])YLEEQAAK([AEEA-AEEA-γGlu-Decanoyl(10-(4-HOOC-PhO))])EFIAWLVRGRG [GLP-1 derivative of Example 94: [Lys18,Glu22,Arg34]-GLP-1-(7-37)-peptide], for which the “ratio IC50 high HSA/IC50 low HSA” value with human GLP-1 receptor [1] is greater than 1. Also, the IC50 with human GLP-1 receptor [2] was less than 1000 nM.

As to HAEGTFTSDVSK([AEEA-AEEA-γGlu-13‑carboxytridecanoyl])YLEEQAAK([AEEA-AEEA-γGlu-13‑carboxytridecanoyl])EFIAWLVRGRG [GLP-1 derivative of Example 96: [Lys18,Glu22,Arg34]-GLP-1-(7-37)-peptide], the “ratio IC50 high HSA/IC50 low HSA” value with human GLP-1 receptor [1] is greater than 1. The IC50 with human GLP-1 receptor [2] was less than 1000 nM.

Regarding HAEGTFTSDVSK([AEEA-AEEA-AEEA-AEEA-γGlu-13‑carboxytridecanoyl])YLEEQAVREFIAK([AEEA-AEEA-AEEA-AEEA-γGlu-13‑carboxytridecanoyl])LVRGRG [GLP-1 derivative of Example 98: [Lys18,Glu22,Val25,Arg26,Lys31,Arg34]-GLP-1-(7-37)-peptide], the “ratio IC50 high HSA/IC50 low HSA” value in the experiment with human GLP-1 receptor [1] was greater than 1. Besides, the IC50 in the experiment with human GLP-1 receptor [2] is less than 1000 nM.

With HAEGTFTSDVSK([AEEA-AEEA-γGlu-Decanoyl(10-(4-HOOC-PhO))])YLEGQAAK([AEEA-AEEA-γGlu-Decanoyl(10-(4-HOOC-PhO))])EFIAWLVRGRG [GLP-1 derivative of Example 95: [Lys18,Arg34]-GLP-1-(7-37)-peptide], in the experiment with human GLP-1 receptor [1], the “ratio IC50 high HSA/IC50 low HSA” value was greater than 1. The molecule further displayed an IC50 in the experiment with human GLP-1 receptor [2] of less than 1000 nM.

Consider HAEGTFTSDVSK([γGlu-AEEA-AEEA-Decanoyl(10-(4-HOOC-PhO))])YLEGQAAK([γGlu-AEEA-AEEA-Decanoyl(10-(4-HOOC-PhO))])EFIAWLVRGRG [GLP-1 derivative of Example 106: [Lys18,Arg34]-GLP-1-(7-37)-peptide], for which the “ratio IC50 high HSA/IC50 low HSA” value with human GLP-1 receptor [1] was greater than 1. In addition, the IC50 with human GLP-1 receptor [2] is less than 1000 nM.

B1: GLP-1 derivative of Example 97: [Lys,Glu22,Arg34]-GLP-1-(7-37)-peptide (peptide)
peptide: HAEGTFTSDVSK([AEEA-AEEA-γGlu-γGlu-13‑carboxytridecanoyl])YLEEQAAK([AEEA-AEEA-γGlu-γGlu-13‑carboxytridecanoyl])EFIAWLVRGRG
notes: Name prints Lys without its number (Lys18)
B1: the “ratio IC50 high HSA/IC50 low HSA” value in the experiment with human GLP-1 receptor [1] was greater than 1. The molecule also gave an IC50 with human GLP-1 receptor [2] of less than 1000 nM.

Consider HAEGTFTSDVSK([AEEA-AEEA-γGlu-Ahx-γGlu-Butanoyl(4-Ph)])YLEGQAAK([AEEA-AEEA-γGlu-Ahx-γGlu-Butanoyl(4-Ph)])EFIAWLVRGRG [GLP-1 derivative of Example 110: [Lys18,Arg34]-GLP-1-(7-37)-peptide], for which, in the experiment with human GLP-1 receptor [1], the “ratio IC50 high HSA/IC50 low HSA” value was greater than 1. Besides, the IC50 in the experiment with human GLP-1 receptor [2] is less than 1000 nM.

HAEGTFTSDVSK([AEEA-AEEA-γGlu-Decanoyl(10-(4-HOOC-PhO))])YLEGQAVREFIAK([AEEA-AEEA-γGlu-Decanoyl(10-(4-HOOC-PhO))])LVRGRG [GLP-1 derivative of Example 107: [Lys18,Val25,Arg26,Lys31,Arg34]-GLP-1-(7-37)-peptide]: in the experiment with human GLP-1 receptor [1], the “ratio IC50 high HSA/IC50 low HSA” value is greater than 1. This molecule gave an IC50 with human GLP-1 receptor [2] of less than 1000 nM.

Regarding HAEGTFTSDVSK([AEEA-AEEA-AEEA-AEEA-AEEA-AEEA-γGlu-13‑carboxytridecanoyl])YLEEQAVREFIAK([AEEA-AEEA-AEEA-AEEA-AEEA-AEEA-γGlu-13‑carboxytridecanoyl])LVRGRG [GLP-1 derivative of Example 99: [Lys18,Glu22,Val25,Arg26,Lys31,Arg34]-GLP-1-(7-37)-peptide], the “ratio IC50 high HSA/IC50 low HSA” value with human GLP-1 receptor [1] was greater than 1. Moreover, in the experiment with human GLP-1 receptor [2], the IC50 is less than 1000 nM.

On to HAEGTFTSDVSK([AEEA-AEEA-γGlu-γGlu-γGlu-13‑carboxytridecanoyl])YLEEQAVREFIAK([AEEA-AEEA-γGlu-γGlu-γGlu-13‑carboxytridecanoyl])LVRGRG [GLP-1 derivative of Example 101: [Lys18,Glu22,Val25,Arg26,Lys31,Arg34]-GLP-1-(7-37)-peptide], for which the “ratio IC50 high HSA/IC50 low HSA” value with human GLP-1 receptor [1] is greater than 1. In the experiment with human GLP-1 receptor [2], this molecule came in with an IC50 of less than 1000 nM.

With HAEGTFTSDVSK([γGlu-AEEA-AEEA-13‑carboxytridecanoyl])YLEGQAVREFIAK([γGlu-AEEA-AEEA-13‑carboxytridecanoyl])LVRGRG [GLP-1 derivative of Example 104: [Lys18,Val25,Arg26,Lys31,Arg34]-GLP-1-(7-37)-peptide], the “ratio IC50 high HSA/IC50 low HSA” value with human GLP-1 receptor [1] is greater than 1. In the experiment with human GLP-1 receptor [2], this molecule yielded an IC50 of less than 1000 nM.

For the origin of these results see US9708383 (Novo Nordisk, dated 2017).
